Where two headings read alike, the source gives them in different places.
Tests used:
Assay in all cases: AUC
[1] = biological target: HIV-1 capsid C-terminal domain construct CA146-231 (HIV-1) (UniProt P12493)
[2] = biological target: HIV-1 capsid C-terminal domain construct CA146-231 (HIV-1) (UniProt P12493); remark: listed apart in the source
[3] = biological target: wild-type, full length HIV-1 capsid protein (CAFL, residues 1-231) (HIV-1) (UniProt P12493)
[4] = biological target: HIV-1 capsid C-terminal domain construct CA144-231 (HIV-1) (UniProt P12493)

HIV-1 capsid C-terminal domain construct CA146-231 (from UniProt P12493 278-363) (domain or fragment)
Kd [1]: 23 µM
Kd [2]: 24 µM

wild-type, full length HIV-1 capsid protein (CAFL, residues 1-231) (from UniProt P12493) (natural protein)
Kd [3]: 20 µM

HIV-1 capsid C-terminal domain construct CA144-231 (from UniProt P12493 276-363) (domain or fragment)
Kd [4]: 16 µM
